# Publication PMC11830286, “Protein identification using Cryo-EM and artificial intelligence guides improved sample purification” (Journal of Structural Biology: X, 2025)
# Molecular target: the molecule itself
# Assay: cryo-EM structure; single particle analysis of the SEC peak of the nanoparticle preparation purified without glycine or arginine; octahedral symmetry enforced, 2.51 Å; about 0.3 mg/mL, buffer with DDM
protein,measurement,value
"dihydrolipoamide succinyltransferase (DLST) (enzyme, E. coli BL21 (DE3), UniProt P0AFG6 1-405, looked up, dihydrolipoamide succinyltransferase (DLST) of E. coli BL21(DE3), UniProt A0A140NDX4; host protein, no construct; the first 170 residues were unresolved in the cryo-EM map and only the catalytic domain was modelled; also called dihydrolipoyllysine-residue succinyltransferase; contaminant nanoparticle; source: endogenous, E. coli BL21(DE3) expression host; co-purified as a contaminant with …) MSSVDILVPDLPESVADATVATWHKKPGDAVVRDEVLVEIETDKVVLEVPASADGILDAVLEDEGTTVTSRQILGRLREGNSAGKETSAKSEEKASTPAQRQQASLEEQNNDALSPAIRRLLAEHNLDASAIKGTGVGGRLTREDVEKHLAKAPAKESAPAAAAPAAQPALAARSEKRVPMTRLRKRVAERLLEAKNSTAMLTTFNEVNMKPIMDLRKQYGEAFEKRHGIRLGFMSFYVKAVVEALKRYPEVNASIDGDDVVYHNYFDVSMAVSTPRGLVTPVLRDVDTLGMADIEKKIKELAVKGRDGKLTVEDLTGGNFTITNGGVFGSLMSTPIINPPQSAILGMHAIKDRPMAVNGQVEILPMMYLALSYDHRLIDGRESVGFLVTIKELLEDPTRLLLDV",stoichiometry N,24
